The text below walks through data of article PMC10616090, “Tailoring FPOX enzymes for enhanced stability and expanded substrate recognition” (Scientific Reports, 2023).

Where no end group is shown, it is not given here.

As usually defined, the Km is the concentration of substrate that gives half-maximal velocity. As a reminder, the Vmax is the top rate of the reaction or transport when substrate is in excess. Usually kcat stands for the maximal rate divided by the concentration of active sites. Usually kcat/Km stands for the turnover number divided by the Michaelis constant.

In data set [1] the target is Phaeosphaeria nodorum fructosyl peptide oxidase (PnFPOX), wild type (Phaeosphaeria nodorum).
In data set [2] the target is X02C variant of PnFPOX (derived from L3-35A through X02A) (Phaeosphaeria nodorum).
Substrate in data set [3]: CC(C)[C@H](NC[C@@]1(O)OC[C@@H](O)[C@@H](O)[C@@H]1O)C(=O)O
The data set is described as follows: glucosone release, o-phenylenediamine, A322, Lineweaver-Burk fit. The format is biochemical, Parastagonospora nodorum. Particulars: 20 mM Tris HCl pH 7.4, 25 °C, 20 mM o-phenylenediamine, substrate 0.05-10 mM. An excerpt: glucosone release, o-phenylenediamine, A322, Lineweaver-Burk fit on PnFPOX (WT)

As to {1‑deoxyfructosyl}-VHLTPE [fructosyl-Val-His-Leu-Thr-Pro-Glu hexapeptide (F6P)], the Km for F6P in the enzymatic activity assay (glucosone release at 322 nm, F6P 0.05 to 1 mM, Lineweaver-Burk fit) worked out at 810 µM in data set [1] and 30 µM in data set [2].

B1: PnFPOX (WT) (Parastagonospora nodorum SN15) (protein)
chain: MAPSRANTSVIVVGGGGTIGSSTALHLVRSGYTPSNVTVLDAYPIPSSQSAGNDLNKIMGVSLRNPVDLQLALEARQMWNEDELFKKFFHNTGRLDCAHGEKDIADLKSGYQALVDAGLDATNEWLDSEDEILKRMPLLSRDQIKGWKAIFSKDGGWLAAAKAINAVGEYLRDQGVRFGFYGAGSFKAPLLAEGVCIGVETVDGTRYYADKVVLAAGAWSPTLVELHEQCVSKAWVYGHIQLTPEEAARYKNSPVVYNGDVGFFFEPNEHGVIKVCDEFPGFTRFKMHQPFGAKAPKRISVPRSHAKHPTDTIPDASDVSIRRAIATFMPQFKNKKMFNQAMCWCTDTADAALLICEHPEWKNFVLATGDSGHSFKLLPNIGKHVVELLEGTLADDLAHAWRWRPGSGDALKSRRSAPAKDLADMPGWNHDKPRANL
notes: C-terminal 6His tag (kept), recombinant in E. coli BL21 Star (DE3); pET15b or pET17b; FAD enzyme
As to B1, in data set [3], the Km came out at 5930 ± 1610 µM, the Vmax worked out at 41700 µM/min, the kcat worked out at 99.3 ± 19.9 s⁻¹ and the kcat/Km stood at 16800 M⁻¹ s⁻¹.
